What was measured:
Adenovirus Type 5 = Adenovirus Type 5 pink-eye clinical disease rabbit eye model; type: in vivo; settings: treatment initiated eight hours after infection; four times daily
Procedure: FIG. 19 is a series of images of rabbit eyes with an Adenoviral infection and treated with control (peg-BSA), cidofovir, or peg-Arginase I drops, according to an example embodiment of the present invention.
In an in vivo rabbit eye model system, the ability of peg-Arginase I to prevent inflammation-associated disease following Adenoviral infection was examined. Rabbit eyes were infected with Adenovirus and eight hours later treatment was initiated. Eyes were treated four times daily with 10 U peg-Arginase I per 50 μl dose. […] FIGS. 20 through 24 illustrate that peg-Arginase I suppresses clinical presentation of disease at all treatment days, including suppression of ocular inflammation and neovascularization. […] These properties of peg-Arginase I illustrate the present invention's utility in preventing numerous vision-threatening ocular diseases that present clinically as inflammation or neovascularization of the eye.

HSV-1 [1] = experiment: In vivo rabbit eye model of HSV infection; settings: for dendritic or geographic ulceration and clinical appearance: vs controls (PBS or peg-BSA)
Description: FIG. 10 is line graph showing viral production in a rabbit eye model for eyes infected with HSV-1 and treated with controls (peg-BSA and PBS), 1% triflourothymidine, or peg-Arginase I, according to an example embodiment of the present invention.
FIG. 11 is a series of images of rabbit eyes infected with HSV-1 and treated with controls (peg-BSA or PBS), 1% triflourothymidine, or peg-Arginase I, according to an example embodiment of the present invention.
In an in vivo rabbit eye model system, the ability of peg-Arginase I to prevent HSV-mediated inflammation-associated disease was assessed relative to a commonly prescribed ophthalmic antiviral-1% triflourothymidine (TFT). Rabbit eyes were infected with HSV, and infection and disease were allowed to establish prior to beginning treatment. […] FIG. 11 depicts representative overall clinical presentation of ocular herpetic disease. In either of the control (PBS or peg-BSA) treatment groups, severe blinding disease was observed following infection, with presence of severe inflammatory discharge and blinding epithelial defects observed by slit lamp examination.

[2] = system: acyclovir resistant mutant HSV; experiment: Cell cultures infected with acyclovir resistant mutant HSV: infectious HSV yield; type: cell-based; settings: two different drug resistant mutant HSV viruses
Description: FIG. 8A is a bar graph showing infectious HSV yield for cell cultures infected with an acyclovir resistant mutant HSV, according to an example embodiment of the present invention.
FIG. 8B is a bar graph showing infectious HSV yield for cell cultures infected with a different acyclovir resistant mutant HSV, according to an example embodiment of the present invention.
(§1) In another exemplary embodiment, the present disclosure may be employed to treat pathogenic infections of the eye (e.g., herpes simplex virus types 1 and 2 (HSV-1 and HSV-2) and Adenovirus infections). Embodiments may be used as a treatment against wild-type and/or drug resistant herpes simplex virus (HSV) replication and/or transmission, as well as HSV-mediated inflammation-associated ocular disease.

[3] = system: VEGF-mediated corneal vascularization; experiment: VEGF pellet corneal micropocket rabbit eye model; type: in vivo; settings: 10 U per 50 μl drop 4 times daily
Procedure: FIG. 26A is a pair of images of rabbit eyes having a VEGF pellet surgically implanted into a corneal micropocket and treated with vehicle or peg-Arginase I, according to an example embodiment of the present invention.
In an in vivo rabbit eye model system, the ability of peg-Arginase I to prevent VEGF-mediated corneal vascularization was assessed by implanting slow release VEGF pellets within a corneal micropocket 3 mm from the corneal limbus. Eyes were subsequently treated with either peg-Arginase I (right, OD eye) or peg-BSA vehicle control (left, OS eye) 4 times daily at a dose of 10 U per 50 μl drop. […] As shown, peg-Arginase I inhibits vision-threatening corneal vascularization, further enabling peg-Arginase I to prevent and ameliorate vision-threatening aspects of many ocular diseases. Moreover, inhibition of vascularization assists in suppressing deleterious inflammatory responses.

HSV-1 [4] = experiment: HSV-1 infected cell cultures: infectious viral yield, cytopathic effects, cell-to-cell spread; type: cell-based
Description: FIG. 5 is a bar graph showing infectious viral yield for cell cultures infected with HSV-1 and treated with a vehicle (peg vehicle), peg-Arginase I, or different concentrations of acyclovir, according to an example embodiment of the present invention.
FIG. 6 is a series of images showing virus-mediated cytopathic effects on cell cultures treated as described in FIG. 5.
FIG. 7A is a series of images of HSV-plaques showing capacity for cell-to-cell spread following treatment with a vehicle (peg vehicle), peg-Arginase I, or acyclovir, according to an example embodiment of the present invention.
as §1

[5] = system: VEGF-mediated migration of primary vascular endothelial cells; experiment: Endothelial cell migration in a scratch wound healing model; type: cell-based; settings: twenty-four hour period
Description: FIG. 25A is a series of images comparing effects of treatment with either control (peg-BSA) or peg-Arginase I on endothelial cell migration in a scratch wound healing model, according to an example embodiment of the present invention.
FIG. 25B is a bar graph showing a percentage of unhealed wound area after a twenty-four hour period for the wounds shown in FIG. 25A.
In another exemplary embodiment, the present disclosure may be employed to prevent and resolve corneal neovascularization and vascularization-associated edema. […] A key mediator and initiator of corneal vascularization may be vascular endothelial growth factor (VEGF).

[6] = system: surgically-induced corneal lesions; experiment: Surgically debrided cornea (corneal wound healing) rabbit eye model; type: in vivo
Description: FIG. 1A is a series of images of rabbit eyes with an 8 mm ([…]) region of cornea surgically debrided and treated with peg vehicle or peg-Arginase I, according to an example embodiment of the present invention.
In an exemplary embodiment, the present disclosure may be employed to treat ocular lesions, which may be caused by accidental or surgical trauma. Application of peg-Arginase I to a corneal lesion accelerates wound healing while reducing or eliminating ocular inflammation, neovascularization and inflammatory discharge.

HSV-1 [7] = experiment: Replication of HSV-1 in primary corneal epithelial cell cultures; type: cell-based; settings: primary human corneal epithelial cells
Description: FIG. 9 is a bar graph showing replication of HSV-1 in primary corneal epithelial cell cultures treated with vehicle or peg-Arginase I, according to an example embodiment of the present invention.
as §1

Adenovirus = experiment: Cell cultures infected with Adenovirus: cytopathic effects; type: cell-based
Description: FIG. 18 is a pair of images of cell cultures infected with Adenovirus and treated with control (peg-BSA) or peg-Arginase I drops, according to an example embodiment of the present invention.
In another exemplary embodiment, the present disclosure may be employed to treat other inflammation-associated ocular diseases, such as those induced by Adenovirus infection. Clinical presentation following Adenoviral infection of the eye may proceed even when antiviral compounds, such as cidofovir, are present. Clinical presentation of Adenovirus-associated ocular disease may be due to uncontrolled inflammatory responses to the infection even following viral clearance.

Nc1ccn(C[C@@H](CO)OCP(=O)(O)O)c(=O)n1 [cidofovir, reference compound]
clinical symptoms / clinical disease presentation (Adenovirus Type 5): did not prevent clinical disease presentation

O=c1[nH]c(=O)n([C@H]2C[C@H](O)[C@@H](CO)O2)cc1C(F)(F)F [1% TFT, triflourothymidine, reference compound]
dendritic or geographic ulceration and clinical appearance (HSV-1 [1]): marked reduction in the presence of dendritic or geographic ulceration, and improved clinical appearance

Nc1nc2c(ncn2COCCO)c(=O)[nH]1 [acyclovir, reference compound]
inhibition of drug-resistant viral replication [2]: not functional against such strains, even at high doses

B1: peg-Arginase I: a formulation of arginase I that has been pegylated; applied as topical ophthalmic eye drop (protein, UniProt P05089 1-322, looked up)
Arginase-1: MSAKSRTIGIIGAPFSKGQPRGGVEEGPTVLRKAGLLEKLKEQECDVKDYGDLPFADIPNDSPFQIVKNPRSVGKASEQLAGKVAEVKKNGRISLVLGGDHSLAIGSISGHARVHPDLGVIWVDAHTDINTPLTTTSGNLHGQPVSFLLKELKGKIPDVPGFSWVTPCISAKDIVYIGLRDVDPGEHYILKTLGIKYFSMTEVDRLGIGKVMEETLSYLLGRKKRPIHLSFDVDGLDPSFTPATGTPVVGGLTYREGLYITEEIYKTGLLSGLDIMEVNPSLGKTPEEVTRTVNTAVAITLACFGLAREGNHKPIDYLNPPK
modifications: PEGylated
notes: a formulation of arginase I that has been pegylated; applied as topical ophthalmic eye drop
corneal edema resulting in corneal clouding and epithelial defects [3]: prevented the appearance of corneal edema | extent and areas of neovascularization of the cornea ([3]; compared to peg-BSA treated controls): significantly reduced | virus-associated cytopathic effects, viral transmission to uninfected cells, cell-to-cell spread (HSV-1 [4]; HSV-1 infected cell cultures): blocked virus-associated cytopathic effects, viral transmission to uninfected cells, and cell-to-cell spread | inhibition of production of infectious virus (HSV-1 [4]; even at high multiplicities of infection (MOIs)): greater than 1000 fold | effectiveness compared with acyclovir (HSV-1 [4]; infectious viral yield, HSV-1): at least as effective as high doses of a common anti-herpetic, acyclovir | VEGF-mediated migration of primary vascular endothelial cells [5]: prevents VEGF-mediated migration of primary vascular endothelial cells | clinical presentation of disease (HSV-1 [1]; five days of treatment): statistically improved clinical presentation of disease | infectious viral titers upon treatment (HSV-1 [1]; treatment begun after infection established (day three post infection titers matched)): barely detectable | dendritic or geographic ulceration and clinical appearance (HSV-1 [1]): marked reduction in the presence of dendritic or geographic ulceration, and improved clinical appearance | Calculated Times of Corneal Epithelium Closure ([6]; 25% closure): 14 h | Calculated Times of Corneal Epithelium Closure ([6]; 50% closure): 30 h | Calculated Times of Corneal Epithelium Closure ([6]; 75% closure): 38 h | eyes clinically cured of all ocular parameters ([6]; by day six): all eyes clinically cured | time for 100% of eyes to reach clinical cure for epithelial defects relative to peg-vehicle ([6]; compared with peg-vehicle): two days faster | Number of Eyes Clinically Cured for Area of Corneal Debridement ([6]; day 0): 0/5 | Number of Eyes Clinically Cured of All Combined Ocular Clinical Conditions ([6]; day 0): 0/5 | Number of Eyes Clinically Cured of Corneal Neovascularization ([6]; day 0): 5/5 (100%) | Number of Eyes Clinically Cured of Scleral Inflammation (Injection) ([6]; day 0): 5/5 (100%) | Number of Eyes Clinically Cured for Area of Corneal Debridement ([6]; day 1): 0/5 | Number of Eyes Clinically Cured of All Combined Ocular Clinical Conditions ([6]; day 1): 0/5 | Number of Eyes Clinically Cured of Corneal Neovascularization ([6]; day 1): 5/5 (100%) | Number of Eyes Clinically Cured of Scleral Inflammation (Injection) ([6]; day 1): 5/5 (100%) | Number of Eyes Clinically Cured for Area of Corneal Debridement ([6]; day 2): 0/5 | Number of Eyes Clinically Cured of All Combined Ocular Clinical Conditions ([6]; day 2): 0/5 | Number of Eyes Clinically Cured of Corneal Neovascularization ([6]; day 2): 5/5 (100%) | Number of Eyes Clinically Cured of Scleral Inflammation (Injection) ([6]; day 2): 5/5 (100%) | Number of Eyes Clinically Cured for Area of Corneal Debridement ([6]; day 3): 3/5 (60%) | Number of Eyes Clinically Cured of All Combined Ocular Clinical Conditions ([6]; day 3): 0/5 | Number of Eyes Clinically Cured of Corneal Neovascularization ([6]; day 3): 5/5 (100%) | Number of Eyes Clinically Cured of Scleral Inflammation (Injection) ([6]; day 3): 5/5 (100%) | Number of Eyes Clinically Cured for Area of Corneal Debridement ([6]; day 4): 5/5 (100%) | Number of Eyes Clinically Cured of All Combined Ocular Clinical Conditions ([6]; day 4): 4/5 (80%) | Number of Eyes Clinically Cured of Corneal Neovascularization ([6]; day 4): 5/5 (100%) | Number of Eyes Clinically Cured of Scleral Inflammation (Injection) ([6]; day 4): 5/5 (100%) | Number of Eyes Clinically Cured for Area of Corneal Debridement ([6]; day 6): 5/5 (100%) | Number of Eyes Clinically Cured of All Combined Ocular Clinical Conditions ([6]; day 6): 5/5 (100%) | Number of Eyes Clinically Cured of Corneal Neovascularization ([6]; day 6): 5/5 (100%) | Number of Eyes Clinically Cured of Scleral Inflammation (Injection) ([6]; day 6): 5/5 (100%) | eyes exhibiting no symptomology from the surgically-induced trauma ([6]; day four): 80% | antiviral effects (HSV-1 [7]): antiviral effects of peg-Arginase I were also observed | toxicity to cells (Adenovirus; Adenovirus infected cell cultures): no toxicity to cells | Adenovirus-mediated cellular cytopathic effects (Adenovirus; vs peg-BSA control): prevents Adenovirus-mediated cellular cytopathic effects | clinical symptoms / clinical disease presentation (Adenovirus Type 5): fewer clinical symptoms | inhibition of drug-resistant viral replication [2]: highly efficient at inhibiting drug-resistant viral replication
